Experimental data as given in US20210147519A1 (Regeneron, published 2021).

B1: H1H20631D (bispecific antibody, V domains shown)
VH 1: EVQLVESGGGLVQPGRSLRLSCTTSGFTFDDYAMHWVRQVPGQGLEWVAGLSWNSDTIGYADSVKGRFTISRDNAKNSLYLQMKSLKAEDTALYYCTKDFYHSLNNWNYYYFDYWGQGTLVTVSS
VH 2: EVQLVESGGGVVQPGGSLRLSCAASGFSLDDYAMHWVRQTPGKGLEWVSLISGDGSRTSYADSVKGRFTISRDNSKNSLYLKMNSLRTEDTALYYCTKDPHNSNWFDPWGQGTLVTVSS
VL: not shown
notes: H1H = human IgG1 Fc; also called anti-IsdB x anti-C1q bispecific antibody
B2: H1H20635D (bispecific antibody, V domains shown)
VH 1: B1 VH 1
VH 2: EVQLVQSGAEVKKPGESLKIFCKGSGYSFINDWIGWVRQMPGKGLEWMGLIFPGDSDTRYSPVFQGHVTISADQSIDTAYLQWNSLKASDTAIYYCAVLRYWHFAIWGRGTLVTVSS
VL: not shown
notes: also called anti-IsdB x anti-C1q bispecific antibody

Columns and labels:
[1] = molecular target: T1, IsdB expressed on the surface of S. aureus Wood 46 (Staphylococcus aureus); assay: ELISA on plate-coated S. aureus Wood 46
T1 construct: whole, on cells
Procedure: Briefly, S. aureus Wood 46 was grown in RPMI overnight, washed in PBS and adjusted to an OD₆₀₀ of 0.25. MaxiSorp 96 well microtiter plates were coated overnight with 100 μl of S. aureus culture per well. Plates were washed and blocked with 3% BSA. […] Anti-human HRP conjugated secondary antibody was added to washed plates. Luminescence reagents (SuperSignal Pico) were then added to the wells and signal was detected in a plate reader (Victor X3 plate reader, Perkin Elmer) immediately. Luminescence values were analyzed by a four-parameter logistic equation over a 7-point response curve (GraphPad Prism) to determine the binding EC₅₀, of the antibodies.

[2] = molecular target: T2, Recombinant bacterial IsdB expressed with a hexahistidine tag (IsdB-6xHis; REGN2655) (Staphylococcus aureus, UniProt A6QG30 42-613); assay: SPR Biacore, captured Ab, IsdB-6xHis analyte, 37C
[3] = molecular target: T3, native human complement component C1q protein purified from human serum (Quidel) (human, UniProt P02745 23-245; P02746 28-253; P02747 29-245); assay: SPR Biacore, captured Ab, hC1q analyte, 37C; 37 C; hC1q binding to the C1q arm of the bispecific antibody
T3 construct: the protein assayed was bought native serum C1q (Quidel); no signal peptide limits are stated; also called hC1q; human C1q

[4] = molecular target: T2, Recombinant bacterial IsdB expressed …; assay: SPR Biacore, captured Ab, IsdB-6xHis analyte, 25C
[5] = molecular target: T3, native human complement component C1q …; assay: SPR Biacore, captured Ab, hC1q analyte, 25C
[6] = molecular target: T3, native human complement component C1q …; assay: cell-based or functional assay
[7] = molecular target: T3, native human complement component C1q …; assay: cell-based or functional assay; remark: listed apart in the source
[8] = molecular target: T3, native human complement component C1q …; assay: SPR Biacore, captured Ab, hC1q analyte, 25C; 25 C; hC1q binding to the C1q arm of the bispecific antibody
[9] = molecular target: T3, native human complement component C1q …; assay: SPR Biacore, captured Ab, hC1q analyte, 37C
[10] = molecular target: T3, native human complement component C1q …; assay: cell-based or functional assay; remark: listed apart in the source
[11] = molecular target: T3, native human complement component C1q …; assay: competition ELISA, 6 nM biot-hC1q, competitor plate-coated hIgG2-k
[12] = molecular target: T3, native human complement component C1q …; assay: competition ELISA, 30 pM biot-hC1q, competitor plate-coated hIgG1-k
[13] = molecular target: T3, native human complement component C1q …; assay: competition ELISA, 6 nM biot-hC1q, competitor plate-coated hIgM
[14] = molecular target: T3, native human complement component C1q …; assay: competition ELISA, 30 pM biot-hC1q, competitor plate-coated hIgG3-k

T3 sequence (P02745 23-245 limits assumed, chain 1 of 3): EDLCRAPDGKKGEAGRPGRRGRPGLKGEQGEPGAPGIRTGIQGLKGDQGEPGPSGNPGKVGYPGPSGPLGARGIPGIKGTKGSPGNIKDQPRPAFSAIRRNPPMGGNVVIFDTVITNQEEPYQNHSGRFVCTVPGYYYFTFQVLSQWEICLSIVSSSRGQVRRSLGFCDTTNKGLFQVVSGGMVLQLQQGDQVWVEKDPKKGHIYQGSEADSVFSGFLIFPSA
T3 sequence (P02746 28-253 limits assumed, chain 2 of 3): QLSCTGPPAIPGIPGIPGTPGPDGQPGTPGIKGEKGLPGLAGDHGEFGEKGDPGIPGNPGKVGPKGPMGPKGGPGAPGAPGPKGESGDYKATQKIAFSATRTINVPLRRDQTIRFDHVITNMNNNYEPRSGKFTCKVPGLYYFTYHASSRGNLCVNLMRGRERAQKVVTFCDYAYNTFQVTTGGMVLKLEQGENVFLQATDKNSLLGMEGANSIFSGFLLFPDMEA
T3 sequence (P02747 29-245 limits assumed, chain 3 of 3): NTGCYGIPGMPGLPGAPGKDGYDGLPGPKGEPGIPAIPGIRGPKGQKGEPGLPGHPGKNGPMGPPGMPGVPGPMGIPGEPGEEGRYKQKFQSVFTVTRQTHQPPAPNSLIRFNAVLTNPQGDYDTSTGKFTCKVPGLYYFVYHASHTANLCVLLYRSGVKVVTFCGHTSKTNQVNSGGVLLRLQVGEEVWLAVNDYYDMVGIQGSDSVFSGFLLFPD
T2 sequence (A6QG30 42-613, tags left off): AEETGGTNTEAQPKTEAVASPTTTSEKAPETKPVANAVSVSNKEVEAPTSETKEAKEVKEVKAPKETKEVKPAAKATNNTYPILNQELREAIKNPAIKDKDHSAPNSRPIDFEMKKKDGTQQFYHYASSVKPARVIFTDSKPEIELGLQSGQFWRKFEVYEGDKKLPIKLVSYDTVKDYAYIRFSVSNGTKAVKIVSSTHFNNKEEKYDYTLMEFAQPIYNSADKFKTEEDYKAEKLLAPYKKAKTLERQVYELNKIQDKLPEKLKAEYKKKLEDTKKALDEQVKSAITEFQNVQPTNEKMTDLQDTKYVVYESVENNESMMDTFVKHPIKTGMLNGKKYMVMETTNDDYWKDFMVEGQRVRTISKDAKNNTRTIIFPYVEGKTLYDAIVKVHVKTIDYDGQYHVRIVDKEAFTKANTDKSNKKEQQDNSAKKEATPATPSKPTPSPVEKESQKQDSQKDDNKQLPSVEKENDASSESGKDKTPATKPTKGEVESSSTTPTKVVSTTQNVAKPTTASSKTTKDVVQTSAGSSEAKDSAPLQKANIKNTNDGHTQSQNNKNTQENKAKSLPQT
T1 sequence (Q2FZF0 41-613): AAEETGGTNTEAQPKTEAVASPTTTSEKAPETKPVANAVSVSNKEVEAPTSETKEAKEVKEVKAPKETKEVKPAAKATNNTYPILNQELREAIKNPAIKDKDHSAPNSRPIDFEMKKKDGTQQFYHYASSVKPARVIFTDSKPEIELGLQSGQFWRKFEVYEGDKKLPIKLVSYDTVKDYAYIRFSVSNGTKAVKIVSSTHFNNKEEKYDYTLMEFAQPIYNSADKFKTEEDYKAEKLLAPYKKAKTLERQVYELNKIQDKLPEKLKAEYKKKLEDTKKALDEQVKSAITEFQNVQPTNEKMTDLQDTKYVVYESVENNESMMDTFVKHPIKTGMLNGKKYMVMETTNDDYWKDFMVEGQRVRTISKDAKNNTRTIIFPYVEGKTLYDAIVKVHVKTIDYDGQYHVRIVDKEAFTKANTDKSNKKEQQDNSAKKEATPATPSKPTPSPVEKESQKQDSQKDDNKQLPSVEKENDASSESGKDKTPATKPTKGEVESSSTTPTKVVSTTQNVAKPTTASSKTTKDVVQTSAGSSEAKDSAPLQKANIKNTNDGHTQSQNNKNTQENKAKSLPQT

Binder	EC50 [1] [nM]	Kd [2] [nM]	t1/2 [2] [min]	Kd [3] [nM]	Kd [4] [nM]	t½ [4] [min]	t½ [5] [min]	Classical Pathway hemolysis assay % inhibition [6] [%]	Classical Pathway hemolysis assay IC50 [6] [nM]	inhibition of CDC of Daudi cells, IC50 [M] [7] [M]	inhibition of CDC of Daudi cells, Max % Inhibition [7] [%]	Kd [8] [nM]	t1/2 [9] [min]	C1q deposition on S. aureus Cowan I EC50 [10] [nM]	other results
B1	1.26	3.43	20.7	0.193	2.36	42.8	7.01	100	2.67	> 1e-07	94	0.228	5.19	0.297	–
B2	1.96	3.33	22.2	0.723	1.7	56.6	2.56	97	8.88	2.8e-08	≥ 99	0.309	0.66	0.425	koff [2]: 0.00052 s⁻¹; kon [2]: 156000 M⁻¹ s⁻¹; % Blockade with 600 nM bispecific Ab [11]: 84%; IC50 [11]: 16 nM; % Blockade with 30 nM bispecific Ab [12]: 87%; koff [4]: 0.000204 s⁻¹; kon [4]: 120000 M⁻¹ s⁻¹; koff [5]: 0.00452 s⁻¹; kon [5]: 1.46e+07 M⁻¹ s⁻¹; % Blockade with 600 nM bispecific Ab [13]: 93%; IC50 [13]: 12 nM; % Blockade with 30 nM bispecific Ab [14]: 53%; koff [9]: 0.0174 s⁻¹; kon [9]: 2.41e+07 M⁻¹ s⁻¹
